From paper PMC1769499

Legend:
[1] = target: recombinant Lhcb1 protein (LHCII apoprotein reconstituted in vitro with chlorophylls and xanthophylls); assay: sucrose density gradient ultracentrifugation; in vitro trimerization of Lhcb1 reconstituted with lutein as only xanthophyll (100% lutein) plus Chl a and b; bound to Ni2+ column, washed with 0.1 mg/ml PG, 0.06% β-DM, 0.2 M NaCl, 20 mM phosphate pH 7.5, 10 mM imidazole; eluted, trimers separated from monomers on a sucrose gradient
[2] = target: recombinant Lhcb1 protein (LHCII apoprotein reconstituted in vitro with chlorophylls and xanthophylls); assay: sucrose density gradient ultracentrifugation; in vitro trimerization of Lhcb1 reconstituted with a mix of all xanthophylls (L,V,N) plus Chl a and b; bound to Ni2+ column, washed with 0.1 mg/ml PG, 0.06% β-DM, 0.2 M NaCl, 20 mM phosphate pH 7.5, 10 mM imidazole; eluted, trimers separated from monomers on a sucrose gradient

recombinant Lhcb1 protein (LHCII apoprotein reconstituted in vitro with chlorophylls and xanthophylls) (natural protein)
stoichiometry N [1]: 3
stoichiometry N [2]: 3
